Values quoted from earlier work in patent US20200085776A1, “Methods of Reducing C-Reactive Protein and/or Treating Cardiovascular Disease” (CARDAX, INC., priority 2018, published 2020).

Key:
[1] = molecular target: T1, IL-1β (Homo sapiens, UniProt P01584); conditions: cited from earlier work
T1 construct: host or cells: human trial patients (endogenous IL-1β)

[2] = tested on: vascular events; conditions: 20 mg/D; patients who achieved a reduction in CRP<2.0; cited from earlier work
[3] = tested on: cardiovascular events; conditions: 15-20 mg/week vs. placebo; cited from earlier work
[4] = subjects with a reduction of CRP<2.0 mg/L, regardless of dose

Compound: canakinumab: monoclonal antibody that targets IL-1β (printed IL-113)
- deaths from infection ([1]; active treatment groups, mostly tuberculosis): more deaths from infection
- effect on CRP, IL-6 and lipids ([1]; patients with active treatment): a reduction in CRP and IL-6, with no change in lipids
- reduction in cardiovascular death and all-cause mortality [1, 4]: 31%
- reduction in the primary end point (composite of myocardial infarction, stroke, or cardiovascular death) [1, 4]: 25%

Compound: CC(C)c1nc(N(C)S(C)(=O)=O)nc(-c2ccc(F)cc2)c1/C=C/[C@@H](O)C[C@@H](O)CC(=O)O [rosuvastatin]
- reduction in vascular events [2]: 62%

Compound: CN(Cc1cnc2nc(N)nc(N)c2n1)c1ccc(C(=O)N[C@@H](CCC(=O)O)C(=O)O)cc1 [methotrexate]
- cardiovascular events compared to placebo [3]: did not result in fewer cardiovascular events
- effect on levels of IL-1β, IL-6, CRP [3]: did not reduce levels of IL-1β, IL-6, or CRP
